Source: patent US10087225B2, “Formulation of MK2 inhibitor peptides” (MOERAE MATRIX, INC., priority 2015, dated 2018)

How the values were obtained:
[1] = human, HCAVSMCs, 10 μM, intracellular half-life (t1/2), fluorescence 0 and 5 days after treatment removal
Description: HCAVSMCs were grown to 80-90% confluence, harvested, and seeded at 20,000 cells/well in a 24 well plate and allowed to adhere overnight in low serum media (DMEM, 1% FBS, and 1% P/S). […] Following treatment, cells were washed with PBS −/−, washed with CellScrub buffer (Genlantis) for 10 minutes at room temperature to remove extracellular polyplexes and/or peptide, washed 2× in PBS −/−, and given fresh complete growth media. Cells were then incubated for an additional 0, 12, 24, 72, or 120 hours. Cells were then washed with PBS −/−, trypsinized, and resuspended in 0.1% Trypan blue in PBS (−/−) for analysis on a FACSCalibur flow cytometer (Becton Dickinson) with BD CellQuest™ Pro software (V 5.2). Data was exported and analyzed with FlowJo software (V 7.6.4). All samples were run in triplicate.

SGK2(h) = biological target: T1, SGK2(h) (Homo sapiens, UniProt Q9HBY8); experiment: Kinase Profiling Assay; type: biochemical; conditions: 100 μM
T1 sequence (Q9HBY8 1-367): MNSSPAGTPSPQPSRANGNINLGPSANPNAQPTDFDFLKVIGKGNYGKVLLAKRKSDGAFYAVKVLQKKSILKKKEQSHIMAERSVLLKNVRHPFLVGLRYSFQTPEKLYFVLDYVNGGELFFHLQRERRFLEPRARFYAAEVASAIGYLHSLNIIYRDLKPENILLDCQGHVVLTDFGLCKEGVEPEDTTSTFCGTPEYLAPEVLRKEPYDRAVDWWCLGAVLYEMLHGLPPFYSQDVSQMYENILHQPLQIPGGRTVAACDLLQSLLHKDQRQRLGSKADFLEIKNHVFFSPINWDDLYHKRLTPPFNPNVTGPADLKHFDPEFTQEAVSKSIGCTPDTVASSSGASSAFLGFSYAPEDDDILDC

Ab1(M351T)(h) = Ab1(M351T)(h) (Homo sapiens, UniProt P00519, M351T); experiment: Kinase Profiling Assay; type: biochemical; conditions: 100 μM
CHK2(h) = CHK2(h) (Homo sapiens, UniProt O96017); experiment: Kinase Profiling Assay; type: biochemical; conditions: 100 μM
Aurora-A(h) = biological target: T2, Aurora-A(h) (Homo sapiens, UniProt O14965); experiment: Kinase Profiling Assay; type: biochemical; conditions: 100 μM
T2 sequence (O14965 1-403): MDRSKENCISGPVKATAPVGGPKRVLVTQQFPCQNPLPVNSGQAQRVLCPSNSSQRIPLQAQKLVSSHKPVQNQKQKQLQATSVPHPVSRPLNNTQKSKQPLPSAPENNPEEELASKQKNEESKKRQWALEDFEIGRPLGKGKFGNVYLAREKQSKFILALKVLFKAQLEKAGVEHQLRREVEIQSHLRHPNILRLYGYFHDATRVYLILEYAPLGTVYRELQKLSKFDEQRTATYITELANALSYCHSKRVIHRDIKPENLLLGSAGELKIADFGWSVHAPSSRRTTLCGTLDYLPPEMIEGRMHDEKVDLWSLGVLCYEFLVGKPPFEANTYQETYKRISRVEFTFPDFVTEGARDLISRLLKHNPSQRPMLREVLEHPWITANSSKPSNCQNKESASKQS

Ab1(Y253F)(h) = Ab1(Y253F)(h) (Homo sapiens, UniProt P00519, Y253F); experiment: Kinase Profiling Assay; type: biochemical; conditions: 100 μM
CDK2/cyclinE(h) = CDK2/cyclinE(h) (Homo sapiens, UniProt P24941); experiment: Kinase Profiling Assay; type: biochemical; conditions: 100 μM
IKKβ(h) = biological target: T3, IKKβ(h) (Homo sapiens, UniProt O14920); experiment: Kinase Profiling Assay; type: biochemical; conditions: 100 μM
T3 sequence (O14920 1-756): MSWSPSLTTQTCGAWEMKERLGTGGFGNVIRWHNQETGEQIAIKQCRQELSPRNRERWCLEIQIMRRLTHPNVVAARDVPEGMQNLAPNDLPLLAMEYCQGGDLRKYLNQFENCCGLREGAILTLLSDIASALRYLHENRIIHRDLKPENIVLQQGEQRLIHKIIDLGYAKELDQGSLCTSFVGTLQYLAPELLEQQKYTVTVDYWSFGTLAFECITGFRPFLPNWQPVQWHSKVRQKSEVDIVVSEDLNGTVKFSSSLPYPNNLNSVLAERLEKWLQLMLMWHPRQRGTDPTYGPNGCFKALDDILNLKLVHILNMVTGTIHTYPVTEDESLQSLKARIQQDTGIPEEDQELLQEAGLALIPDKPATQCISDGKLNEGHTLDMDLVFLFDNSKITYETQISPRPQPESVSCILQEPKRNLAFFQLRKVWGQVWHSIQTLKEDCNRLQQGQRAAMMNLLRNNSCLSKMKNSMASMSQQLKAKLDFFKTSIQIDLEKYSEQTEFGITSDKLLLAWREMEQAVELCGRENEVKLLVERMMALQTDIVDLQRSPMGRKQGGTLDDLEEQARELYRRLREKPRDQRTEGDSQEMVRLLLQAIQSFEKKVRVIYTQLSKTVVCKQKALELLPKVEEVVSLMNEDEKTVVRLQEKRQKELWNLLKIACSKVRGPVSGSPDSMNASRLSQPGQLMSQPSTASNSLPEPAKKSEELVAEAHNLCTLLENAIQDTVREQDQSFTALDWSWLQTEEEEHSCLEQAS

EphA3(h) = biological target: T4, EphA3(h) (Homo sapiens, UniProt P29320); experiment: Kinase Profiling Assay; type: biochemical; conditions: 100 μM
T4 sequence (P29320 21-983): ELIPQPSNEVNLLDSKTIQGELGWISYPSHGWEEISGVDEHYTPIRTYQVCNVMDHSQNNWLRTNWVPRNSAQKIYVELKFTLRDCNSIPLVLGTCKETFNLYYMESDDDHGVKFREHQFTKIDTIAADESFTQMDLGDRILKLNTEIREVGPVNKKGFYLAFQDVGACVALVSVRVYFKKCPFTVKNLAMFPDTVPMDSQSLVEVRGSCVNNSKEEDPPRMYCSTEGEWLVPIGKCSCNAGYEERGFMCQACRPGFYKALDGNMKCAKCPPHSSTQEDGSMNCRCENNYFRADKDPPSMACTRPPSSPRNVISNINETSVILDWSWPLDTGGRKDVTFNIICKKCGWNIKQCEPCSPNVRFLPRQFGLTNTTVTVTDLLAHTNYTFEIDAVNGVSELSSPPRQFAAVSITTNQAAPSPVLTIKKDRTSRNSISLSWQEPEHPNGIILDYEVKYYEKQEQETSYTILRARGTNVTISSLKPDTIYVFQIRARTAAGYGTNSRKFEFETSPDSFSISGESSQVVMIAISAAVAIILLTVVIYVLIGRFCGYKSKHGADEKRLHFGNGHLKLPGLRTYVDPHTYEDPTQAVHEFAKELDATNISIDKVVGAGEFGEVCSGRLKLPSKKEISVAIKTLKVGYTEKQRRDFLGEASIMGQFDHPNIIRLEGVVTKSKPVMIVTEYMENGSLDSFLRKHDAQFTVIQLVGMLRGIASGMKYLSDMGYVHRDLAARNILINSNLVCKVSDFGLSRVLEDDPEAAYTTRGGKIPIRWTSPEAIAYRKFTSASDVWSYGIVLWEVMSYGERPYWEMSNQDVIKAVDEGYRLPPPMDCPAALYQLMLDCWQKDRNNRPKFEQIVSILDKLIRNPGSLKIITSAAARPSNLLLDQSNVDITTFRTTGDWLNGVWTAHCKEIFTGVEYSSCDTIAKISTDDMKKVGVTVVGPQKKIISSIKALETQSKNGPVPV

Ab1(h) = Ab1(h) (Homo sapiens, UniProt P00519); experiment: Kinase Profiling Assay; type: biochemical; conditions: 100 μM

Sequence of CHK2(h) (O96017 whole entry): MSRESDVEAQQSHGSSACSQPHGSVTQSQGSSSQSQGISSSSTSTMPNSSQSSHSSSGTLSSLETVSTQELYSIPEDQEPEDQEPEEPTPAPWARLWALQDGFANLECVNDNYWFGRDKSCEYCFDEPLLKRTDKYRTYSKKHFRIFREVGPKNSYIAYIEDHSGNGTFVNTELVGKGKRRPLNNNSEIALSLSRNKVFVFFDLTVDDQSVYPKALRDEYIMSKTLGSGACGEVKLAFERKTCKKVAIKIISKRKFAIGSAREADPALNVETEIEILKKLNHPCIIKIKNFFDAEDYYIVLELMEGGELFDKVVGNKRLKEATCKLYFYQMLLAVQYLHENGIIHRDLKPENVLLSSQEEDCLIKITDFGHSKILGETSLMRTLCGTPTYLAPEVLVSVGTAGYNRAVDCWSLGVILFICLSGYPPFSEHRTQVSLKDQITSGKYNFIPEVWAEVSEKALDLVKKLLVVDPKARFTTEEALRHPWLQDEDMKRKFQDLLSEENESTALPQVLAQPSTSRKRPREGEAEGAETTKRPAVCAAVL

H-YARAAARQARAKALARQLGVAA-OH [MMI-0100]
half-life [1]: 96 h

HRRIKAWLKKIKALARQLGVAA (Mammalian) [MMI-0500]
% activity (SGK2(h)): -1%
% activity (Ab1(M351T)(h)): 61%
% activity (CHK2(h)): 13%
% activity (Aurora-A(h)): 110%
% activity (Ab1(Y253F)(h)): 29%
% activity (CDK2/cyclinE(h)): 19%
% activity (IKKβ(h)): 71%
% activity (EphA3(h)): 33%
% activity (Ab1(h)): 16%
